OD Value Obtained after Binding to BSA data for 10 molecules are collected here from US20240425575A1.

The experiment has as its target BSA (UniProt P02769). Kind of experiment: ELISA, BSA coated (control), E. coli supernatant, anti-VHH-HRP.

Where a chain is given by its changes, count along the chain named.

BSA, sequence (P02769 25-607 limits assumed): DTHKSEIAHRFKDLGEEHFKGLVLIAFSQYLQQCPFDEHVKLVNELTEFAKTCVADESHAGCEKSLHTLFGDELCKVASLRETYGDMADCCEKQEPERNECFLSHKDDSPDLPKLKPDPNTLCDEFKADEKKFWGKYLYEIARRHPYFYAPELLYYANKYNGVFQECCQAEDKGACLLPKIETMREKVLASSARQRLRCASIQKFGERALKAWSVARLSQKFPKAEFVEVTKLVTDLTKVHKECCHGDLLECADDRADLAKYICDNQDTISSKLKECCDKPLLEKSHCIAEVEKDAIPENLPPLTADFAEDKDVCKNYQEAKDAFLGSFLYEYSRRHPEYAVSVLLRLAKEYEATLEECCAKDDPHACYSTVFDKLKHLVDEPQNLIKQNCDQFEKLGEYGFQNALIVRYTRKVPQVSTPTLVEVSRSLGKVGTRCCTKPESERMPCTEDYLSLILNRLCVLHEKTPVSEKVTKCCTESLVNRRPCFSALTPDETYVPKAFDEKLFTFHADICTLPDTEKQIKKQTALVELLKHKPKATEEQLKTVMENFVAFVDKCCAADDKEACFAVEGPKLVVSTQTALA

B1: B2-E2 (VHH)
VHH: EVQLVESGGGLVQPGESLRLSCVASGFPSGFTFSDYQMYWYRQAPGKERELVAIISNDGLRKTYADSVKGRFTISRDNAKNTMFLQMNSLKPEDTAVYVCNVRRANRDDWGQGTQVTVSS
Consider B1, for which the OD Value Obtained after Binding to BSA worked out at 0.07 OD 450 nm.

B2: B2-F10 (VHH)
VHH: QVQLVESGGGLVQAGGSLRLSCGASGSAVSITLMAWYRQAPGKQRELVAGISNIGDTNYVDSVKDRFTISRINAKNAMYLQMNSLKPEDTAVYYCFAQDWGGHHYWGQGTQVTVSS
B2 showed an OD Value Obtained after Binding to BSA of 0.063 OD 450 nm.

B3: B4-D3 (VHH)
VHH: QLQLVESGGGLVQPGGSLRLSCVASGASGISFSNRGMAWYRQAPGKQRELVAAIDSAGSPAYAGSVKGRFTISRDNAKNTVFLQMNSLKPEDTAVYYCNQPRFNLWGLGTQVTVSS
B3 yielded an OD Value Obtained after Binding to BSA of 0.059 OD 450 nm.

B4: B3-C11 (VHH)
VHH: EVQLVESGGGLVQAGGSLRLSCFVSGSTFSASLMGWYRQAPGKERELVAGISNIGNTVYADSAKGRFTISRDGAKNTVHLQMNALKPEDTAVYYCYATVPRAAWGQGTQVTVSS
Turning to B4, the OD Value Obtained after Binding to BSA worked out at 0.071 OD 450 nm.

B5: B2-A6 (VHH)
VHH: B4 VHH with E1Q, V2L
For B5, the OD Value Obtained after Binding to BSA amounted to 0.049 OD 450 nm.

B6: B1-G8 (VHH)
VHH: QVQLVESGGGLVQTGDSLRLSCVAPGISFSNRGMAWYRQAPGKQRELVAAIDSAGSQRYAGSVKDRFTISRDNAKNTVFLQMNSLKPEDTAVYYCNQPRFNLWGQGTQVTVSS
As to B6, the OD Value Obtained after Binding to BSA was 0.065 OD 450 nm.

B7: B4-C11 (VHH)
VHH: QVQLVESGGGLVQAGGSLRLSCAASGSTFSNVVAGWYRQAPGKQRELVAGISNIGDTRYADSVKGRFTISRDNAKKAVYLQMNSLKPEDTAVYYCYAKYWARDYWGQGTQVTVSS
With B7, the OD Value Obtained after Binding to BSA amounted to 0.071 OD 450 nm.

B8: B3-H7 (VHH)
VHH: B7 VHH with Q1E, L4V, F29A, S30I, V32S, A77T, P87S
The molecule B8 showed an OD Value Obtained after Binding to BSA of 0.056 OD 450 nm.

B9: B1-H9 (VHH)
VHH: B7 VHH with Q1E, G10D, N31S, V32T, V33I, A77T
Turning to B9, the OD Value Obtained after Binding to BSA came out at 0.058 OD 450 nm.

B10: B1-G3 (VHH)
VHH: EVQVVESGGGLVQPGGSLRLSCVASMPSGISFSNRGMAWYRQAPGKQRELVAAIDSAGSTRYQDSVKGRFTISRDNAKNTVFLQMNSLKPEDTAVYYCNQPAFKAWGQGTQVTVSS
For the molecule B10, the OD Value Obtained after Binding to BSA amounted to 0.067 OD 450 nm.
